Results: patent US20200148733A1 (Pieris, published 2020)
“And” between values parts separate entries of the source, which are not always exact repeats. Identical values can stand only once.

T1: lipocalin mutein SEQ ID NO: 9
T1 construct: Human NGAL (lipocalin 2) mutein specific for IL-23p19
T1 chain: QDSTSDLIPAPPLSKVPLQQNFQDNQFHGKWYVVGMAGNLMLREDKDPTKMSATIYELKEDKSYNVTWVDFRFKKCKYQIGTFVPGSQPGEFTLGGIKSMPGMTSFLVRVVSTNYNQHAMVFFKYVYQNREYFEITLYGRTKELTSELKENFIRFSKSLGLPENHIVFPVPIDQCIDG

T2: lipocalin mutein SEQ ID NO: 10
T2 construct: Human NGAL (lipocalin 2) mutein specific for IL-23p19
T2 chain: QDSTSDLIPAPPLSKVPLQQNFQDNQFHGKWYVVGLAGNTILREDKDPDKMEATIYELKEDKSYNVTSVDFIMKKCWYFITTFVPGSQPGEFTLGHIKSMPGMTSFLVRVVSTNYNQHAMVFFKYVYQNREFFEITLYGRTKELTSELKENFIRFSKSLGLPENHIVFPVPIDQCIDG

B1: lipocalin mutein SEQ ID NO: 15 (designed binder)
chain: QDSTSDLIPAPPLSKVPLQQNFQDNQFHGKWYVVGEAGNLLLREDKDPRKMTATIYELKEDKSYNVTRVEFGVKTYKYQIGTFVPGSQPGEFTLGGIKSMPGMTSFLVRVVSTNYNQHAMVFFKYVYQNREYFEITLYGRTKELTSELKENFIRFSKSLGLPENHIVFPVPIDQAIDG
notes: IL-23p19-specific mutein
B2: benchmark antibody 2 (antibody, human IgG4, kappa, V domains shown)
VH: QVQLVQSGAEVKKPGSSVKVSCKASGYSFTDYHISWVRQAPGQGLEWMGVINPEYGTTDYNQRFKGRVTITADESTSTAYMELSSLRSEDTAVYYCARYDYFTGTGAYWGQGTLVTVSS
VL: DIVMTQTPLSLSVTPGQPASISCRSSQSLKHSRGNTFLHWYLQKPGQSPQLLIYKVSNRFIGVPDRFSGSGSGTDFTLKISRVEAEDVGVYYCSQSTHYPFTFGQGTKLEIKR
B3: ABD fusion (SEQ ID NO: 42) (designed binder)
chain: QDSTSDLIPAPPLSKVPLQQNFQDNQFHGKWYVVGEAGNLLLREDKDPRKMTATIYELKEDKSYNVTRVEFGVKTYKYQIGTFVPGSQPGEFTLGGIKSMPGMTSFLVRVVSTNYNQHAMVFFKYVYQNREYFEITLYGRTKELTSELKENFIRFSKSLGLPENHIVFPVPIDQAIDGSAGAVDANSLAEAKVLANRELDKYGVSDYYKNLINNAKTVEGVKALIDEILAALP
B4: human IL-23 (ligand)
chain 1: RAVPGGSSPAWTQCQQLSQKLCTLAWSAHPLVGHMDLREEGDEETTNDVPHIQCGDGCDPQGLRDNSQFCLQRIHQGLIFYEKLLGSDIFTGEPSLLPDSPVGQLHASLLGLSQLLQPEGHHWETQQIPSLSPSQPWQRLLLRFKILRSLQAFVAVAARVFAHGAATLSP
chain 2: IWELKKDVYVVELDWYPDAPGEMVVLTCDTPEEDGITWTLDQSSEVLGSGKTLTIQVKEFGDAGQYTCHKGGEVLSHSLLLLHKKEDGIWSTDILKDQKEPKNKTFLRCEAKNYSGRFTCWWLTTISTDLTFSVKSSRGSSDPQGVTCGAATLSAERVRGDNKEYEYSVECQEDSACPAAEESLPIEVMVDAVHKLKYENYTSSFFIRDIIKPDPPKNLQLKPLKNSRQVEVSWEYPDTWSTPHSYFSLTFCVQVQGKSKREKKDRVFTDKTSATVICRKNASISVRAQDRYYSSSWSEWASVPCS
notes: Heterodimer of p19 and p40; in the proliferation assays CAT # HZ-1254, HumanZyme; also called hIL-23; hIL23
B5: mouse IL-23 (ligand)
chain 1: VPRSSSPDWAQCQQLSRNLCMLAWNAHAPAGHMNLLREEEDEETKNNVPRIQCEDGCDPQGLKDNSQFCLQRIRQGLAFYKHLLDSDIFKGEPALLPDSPMEQLHTSLLGLSQLLQPEDHPRETQQMPSLSSSQQWQRPLLRSKILRSLQAFLAIAARVFAHGAATLTEPLVPTA
chain 2: MWELEKDVYVVEVDWTPDAPGETVNLTCDTPEEDDITWTSDQRHGVIGSGKTLTITVKEFLDAGQYTCHKGGETLSHSHLLLHKKENGIWSTEILKNFKNKTFLKCEAPNYSGRFTCSWLVQRNMDLKFNIKSSSSSPDSRAVTCGMASLSAEKVTLDQRDYEKYSVSCQEDVTCPTAEETLPIELALEARQQNKYENYSTSFFIRDIIKPDPPKNLQMKPLKNSQVEVSWEYPDSWSTPHSYFSLKFFVRIQRKKEKMKETEEGCNQKGAFLVEKTSTEVQCKGGNVCVQAQDRYYNSSCSKWACVPCRVRS
notes: also called mIL-23
B6: cynomolgus monkey IL-17A (ligand)
chain: GIAIPRNSGCPNSEDKNFPRTVMVNLNIHNRNTSTNPKRSSDYYNRSTSPWNLHRNEDPERYPSVIWEAKCRHLGCVKADGNVDYHMNSVPIQQEILVLRREPRHCPNSFRLEKILVSVGCTCVTPIVHHVA
notes: also called cIL-17A; cIL-17-A
B7: IgG antibody (comprising the amino acids shown in SEQ ID NOs: 51 and 52) (antibody, V domains shown)
VH: QVQLVQSGAEVKKPGASVKVSCKASGYIFITYWMTWVRQAPGQGLEWMGQIFPASGSADYNEKFEGRVTMTTDTSTSTAYMELRSLRSDDTAVYYCARGGGGFAYWGQGTLVTVSS
VL: DIQMTQSPSSLSASVGDRVTITCRTSENIYSYLAWYQQKPGKAPKLLIYNAKTLAEGVPSRFSGSGSGTDFTLTISSLQPEDFATYYCQHHYGIPFTFGQGTKVEIKR
notes: also called positive control IgG
B8: negative control SEQ ID NO: 11 (designed binder)
chain: QDSTSDLIPAPPLSKVPLQQNFQDNEFHGKWYVVGLAGNAILREDKDPQKMYATIYELKEDKSYNVTSVLFRKKKCDYWIRTFVPGSQPGEFTLGNIKSYPGLTSYLVRVVSTNYNQHAMVFFKKVSQNREYFKITLYGRTKELTSELKENFIRFSKSLGLPENHIVFPVPIDQCIDG

Key:
human IL-23 [1] = target: B4; test: competition ELISA (ECL): 0.2 nM biotinylated hIL-23 pre-incubated with varied mutein, free hIL-23 captured on coated soluble hIL-23R (competitor)
human IL-23 [2] = target: B4; test: cell-based or functional assay
human IL-23 [3] = target: B4; test: competition ECL assay: biotinylated hIL-23 pre-incubated with varied binder, free hIL-23 captured on coated soluble hIL-23R (competitor); Example 28
human IL-23 [4] = target: B4; test: cell-based or functional assay; remark: listed apart in the source
human IL-17A = human IL-17A (human, UniProt Q16552 24-155); test: cell-based or functional assay
[5] = target: T3, lipocalin mutein SEQ ID NO: 6; test: solution competition ELISA: 100 nM mutein (C-terminal Streptag) pre-incubated with varied ligand, free mutein captured on immobilised biotinylated hIL-23 (competitor)
T3 construct: Tear lipocalin mutein specific for IL-23p19
T3 sequence (chain, as listed by the source): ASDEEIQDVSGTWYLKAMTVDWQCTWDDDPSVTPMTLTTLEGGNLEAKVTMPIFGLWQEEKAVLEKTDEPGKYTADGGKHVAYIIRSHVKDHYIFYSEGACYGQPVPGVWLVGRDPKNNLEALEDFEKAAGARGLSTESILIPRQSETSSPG
Procedure: (§1) In the following detailed experimental protocol, incubation and washing steps were performed as described above in the competition ELISA protocol. A 384-well plate suitable for fluorescence measurements (Greiner FLUOTRAC™ 600, black flat bottom, high-binding) was coated with 20 μl of Neutravidin at a concentration of 5 μg/ml in PBS over night at 4° C. After washing, the Neutravidin-coated wells were blocked with 100 μl blocking buffer (PBS-T/BSA) for 1h at room temperature.
(§2) Note that the lipocalein muteins contained a C-terminal Streptag fusion to allow binding and subsequent detection with the aid of an anti-Streptag antibody.
(§3) The residual supernatants were discarded and 20 μl of HRP-conjugated anti-Streptag IgG antibody (Genscript) was added at a predetermined optimal concentration in PBS-T/BSA and incubated for 1 h at RT. After washing, 20 μl fluorogenic HRP substrate (Quantablue, Pierce) was added to each well, and the reaction allowed to proceed for 30 minutes.

[6] = target: T4, lipocalin mutein SEQ ID NO: 12; test: as above
T4 construct: Tear lipocalin mutein specific for IL-23p19
T4 sequence (chain, as listed by the source): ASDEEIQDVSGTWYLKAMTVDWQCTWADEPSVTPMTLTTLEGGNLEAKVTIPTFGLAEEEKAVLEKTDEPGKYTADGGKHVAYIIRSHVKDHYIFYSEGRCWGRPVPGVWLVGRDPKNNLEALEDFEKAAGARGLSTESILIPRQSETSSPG
Procedure: as §1, §2, §3

[7] = target: T5, lipocalin mutein SEQ ID NO: 13; test: as above
T5 construct: Tear lipocalin mutein specific for IL-23p19
T5 sequence (chain, as listed by the source): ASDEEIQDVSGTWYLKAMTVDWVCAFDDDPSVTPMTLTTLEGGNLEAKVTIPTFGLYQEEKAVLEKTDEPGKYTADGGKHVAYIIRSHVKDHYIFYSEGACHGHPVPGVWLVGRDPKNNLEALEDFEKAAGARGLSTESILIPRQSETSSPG
Procedure: as §1, §2, §3

[8] = target: T1, lipocalin mutein SEQ ID NO: 9; test: solution competition ELISA: 10 nM SEQ ID NO: 9 pre-incubated with varied ligand, free mutein captured on immobilised biotinylated hIL-23 (competitor)
Procedure: as §1, with “PBS-T/BSA” for “blocking buffer (PBS-T/BSA)”

[9] = target: T2, lipocalin mutein SEQ ID NO: 10; test: solution competition ELISA: 1 nM SEQ ID NO: 10 pre-incubated with varied ligand, free mutein captured on immobilised biotinylated hIL-23 (competitor)
Procedure: as §1, with “PBS-T/BSA” for “blocking buffer (PBS-T/BSA)”

[10] = target: T6, lipocalin mutein SEQ ID NO: 5; test: solution competition ELISA: 0.5 nM SEQ ID NO: 5 pre-incubated with varied ligand, free mutein captured on immobilised biotinylated hIL-17A (competitor)
T6 construct: Human tear lipocalin (Tlc) mutein specific for IL-17A; also called Tlc mutein
T6 sequence (chain, as listed by the source): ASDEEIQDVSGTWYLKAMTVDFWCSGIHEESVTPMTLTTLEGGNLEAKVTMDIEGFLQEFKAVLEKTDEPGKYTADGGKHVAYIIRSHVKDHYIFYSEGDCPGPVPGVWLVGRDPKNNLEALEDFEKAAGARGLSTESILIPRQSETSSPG
Procedure: as §1

human IL-23 [11] = target: B4; test: competition ELISA (ECL): 0.05 nM biotinylated hIL-23 pre-incubated with varied binder, free hIL-23 captured on coated soluble hIL-23R (competitor); single measurement
Procedure: (§4) The IgG antibody served as the positive control. […] The detailed experimental procedure was described as follows.
(§5) After washing, 60 μl MSD Read Buffer T (2×) was added to each well and the plate was read within 15 min.
(§6) The resulting Electrochemoluminescence (ECL) signal was measured with a suitable instrument such as the SECTOR Imager 2400 (Meso Scale Discovery).

human IL-23 [12] = target: B4; test: competition ELISA (ECL): 0.05 nM biotinylated hIL-23 pre-incubated with varied binder, free hIL-23 captured on coated soluble hIL-23R (competitor); average of two measurements
Procedure: as §4, §5, §6

human IL-23 [13] = target: B4; test: competition ELISA (ECL), 0.2 nM biotinylated hIL-23, coated soluble hIL-23R

B1
IC50 (human IL-23 [1]): 0.3 nM
EC50 [nM] AVERAGE, hIL-23-induced proliferation of Ba/F3 cells expressing hIL-23R and hIL-12Rβ1 (human IL-23 [2]): 0.6 nM
EC50 [nM] Exp 1, hIL-23-induced proliferation of Ba/F3 cells expressing hIL-23R and hIL-12Rβ1 (human IL-23 [2]): 0.3 nM
EC50 [nM] Exp 2, hIL-23-induced proliferation of Ba/F3 cells expressing hIL-23R and hIL-12Rβ1 (human IL-23 [2]): 0.4 nM
EC50 [nM] Exp 3, hIL-23-induced proliferation of Ba/F3 cells expressing hIL-23R and hIL-12Rβ1 (human IL-23 [2]): 1 nM
EC50 [nM] Exp 4, hIL-23-induced proliferation of Ba/F3 cells expressing hIL-23R and hIL-12Rβ1 (human IL-23 [2]): 0.7 nM
IC50 (human IL-23 [3]): 0.27 nM
IC50, hIL-23-induced proliferation of Ba/F3 cells expressing hIL-23R and hIL-12Rβ1 (human IL-23 [4]): 3.8 nM

B2
IC50, hIL-17A-induced secretion of G-CSF in U87-MG cells (human IL-17A): 0.6 nM

B3
IC50 (experiment of FIG. 19), hIL-23-induced proliferation of Ba/F3 cells expressing hIL-23R and hIL-12Rβ1 (human IL-23 [4]): 0.22 nM
IC50 (three independent experiments), hIL-23-induced proliferation of Ba/F3 cells expressing hIL-23R and hIL-12Rβ1 (human IL-23 [4]): 0.41 nM

B4
IC50 [5]: 89 nM
IC50 [6]: 66 nM
IC50 [7]: 24 nM
IC50 [8]: 55 nM
IC50 [9]: 1.4 nM

B5
IC50 [8]: 88 nM
IC50 [9]: 361 nM

B6
IC50 [10]: 0.3 nM

B7
IC50 (human IL-23 [11]): 0.22 nM and 0.29 nM
IC50 (human IL-23 [12]): 0.26 nM

B8
binding result (human IL-23 [13]): no binding (tested: starting concentration 500 nM)
